The target of the test is Recombinant wild-type mouse talin1 fragment R11 (residues 1,974–2,140) (mouse) (UniProt P26039). The test is described as follows: ITC. (In ITC the heat of successive injections is recorded.)

pKd: −log10 of the molar value.

Sequence of UniProt P26039 (P26039 1974-2140): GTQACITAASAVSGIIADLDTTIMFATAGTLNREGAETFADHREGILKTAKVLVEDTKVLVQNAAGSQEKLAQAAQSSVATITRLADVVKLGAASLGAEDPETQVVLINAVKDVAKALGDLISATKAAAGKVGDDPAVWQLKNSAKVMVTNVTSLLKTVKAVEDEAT

The term pKd denotes −log10 of the Kd, conventionally taken in molar units. For “tensin3 H1 peptide (from UniProt Q68CZ2 692-712)”, the pKd was 4.77 and the dH was 4.8 kcal/mol.

These data come from paper doi:10.1101/2021.07.16.452612.
